Earlier results on 2 substances are cited in article PMC9371363.

For one data set, the target named is IL-4Rα (Homo sapiens) (UniProt P24394).
The target in the next data set is IL-13Rα2 (Homo sapiens) (UniProt Q14627).
Sequence of UniProt Q14627 (Q14627 27-343): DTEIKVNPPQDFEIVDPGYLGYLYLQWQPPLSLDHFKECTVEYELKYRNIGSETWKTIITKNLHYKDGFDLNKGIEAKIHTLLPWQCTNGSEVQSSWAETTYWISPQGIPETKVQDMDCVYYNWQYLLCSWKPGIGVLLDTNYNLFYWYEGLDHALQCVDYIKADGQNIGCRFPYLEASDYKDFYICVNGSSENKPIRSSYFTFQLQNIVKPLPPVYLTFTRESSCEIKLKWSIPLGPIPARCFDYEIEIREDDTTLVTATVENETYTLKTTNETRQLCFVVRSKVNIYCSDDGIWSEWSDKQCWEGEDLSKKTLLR

Sequence of UniProt P24394 (P24394 26-232): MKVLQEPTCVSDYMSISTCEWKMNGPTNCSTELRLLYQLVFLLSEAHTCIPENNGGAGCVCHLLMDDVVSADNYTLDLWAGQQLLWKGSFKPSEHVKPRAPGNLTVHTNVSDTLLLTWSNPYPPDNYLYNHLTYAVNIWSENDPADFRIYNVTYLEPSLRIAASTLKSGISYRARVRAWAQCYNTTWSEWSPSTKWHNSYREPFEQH

Turning to IL-4 (from UniProt P05112), in the data set with IL-4Rα (Homo sapiens), the dissociation constant Kd was 100 pM.

For the substance IL-13 (from UniProt P35225), the Kd in the data set with IL-13Rα2 (Homo sapiens) is under 0.001 pM.
